The values below come from article PMC11606422, “MdWRKY31‐MdNAC7 regulatory network: orchestrating fruit softening by modulating cell wall‐modifying enzyme MdXTH2 in response to ethylene signalling”.

This data set deals with T1, MdNAC7 (Malus domestica, UniProt D9ZJA6 1-263).
T1 sequence: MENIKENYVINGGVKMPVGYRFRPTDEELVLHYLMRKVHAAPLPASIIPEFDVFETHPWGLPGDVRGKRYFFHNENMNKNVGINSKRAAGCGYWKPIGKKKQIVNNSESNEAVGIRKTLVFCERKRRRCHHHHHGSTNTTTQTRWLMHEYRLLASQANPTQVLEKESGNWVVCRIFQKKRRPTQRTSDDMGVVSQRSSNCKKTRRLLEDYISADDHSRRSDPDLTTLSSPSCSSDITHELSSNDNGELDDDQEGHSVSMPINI
Briefly: EMSA; LightShift Chemiluminescent EMSA kit, 10 uL, room temperature 30 min, 6% polyacrylamide gel in 0.5x TBE; salt and pH not stated. Particulars: protein: recombinant; chain copies: 2; label: biotin. In general terms: Mobility shift assays separate free from complexed probe on a gel.

B1: MdXTH2 promoter probe for MdNAC7 (dsDNA)
DNA 1: GTAGTACACCATGTGTTATTAT
DNA 2: ATAATAACACATGGTGTACTAC
For the molecule B1, the binding result was “no binding”.
